Here are results for 13 molecules from US20030068675, “Position dependent recognition of GNN nucleotide triplets by zinc fingers” (published 2003).

Where a chain is given by its changes, count along the chain named.

Experiment in all cases: EMSA
Common to all, as to details: tags: MBP fusion
For orientation: Mobility shift assays separate free from complexed probe on a gel.

Series [1] concerns the target ZFP SBS#661 (synthetic). Put shortly:
(§1)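 Purified ZFP was titrated against labeled double-stranded target (1 nM or lower, at least 10-fold below expected Kd) carrying the natural binding site with flanks. Binding buffer was 10 mM Tris pH 7.5, 100 mM KCl, 1 mM MgCl2, 0.1 mM ZnCl2, 5 mM DTT, 10% glycerol, 0.02% BSA, with equilibration for at least 45 min. Bound and free target were separated on a 10% polyacrylamide gel.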

Series [2] deals with T1, ZFP SBS#660 (synthetic).
T1 chain: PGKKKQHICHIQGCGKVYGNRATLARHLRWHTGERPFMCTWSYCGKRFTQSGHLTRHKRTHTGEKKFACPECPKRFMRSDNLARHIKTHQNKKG
The procedure, abridged:
as §1

In series [3] the target is T2, ZFP SBS#698 (synthetic).
T2 chain: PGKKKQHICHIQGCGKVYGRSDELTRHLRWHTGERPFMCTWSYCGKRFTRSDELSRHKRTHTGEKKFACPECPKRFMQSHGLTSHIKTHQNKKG
The procedure, abridged:
as §1

Series [4] addresses T3, ZFP SBS#697 (synthetic).
T3 chain: T2 chain with H80G, G81H, S84K
The procedure, abridged: as §1

In series [5] the target is ZFP SBS#603 (synthetic). The procedure, abridged:
as §1

For series [6], the target named is T4, ZFP SBS#709 (synthetic).
T4 chain: T1 chain with N20Q, R21S, T23N, Q50R, S51K, G52D, H53V, T55V, R56S
The procedure, abridged: as §1

The target in series [7] is ZFP SBS#600 (synthetic). The procedure, abridged:
as §1

Series [8] deals with T5, ZFP SBS#601 (synthetic).
T5 chain: T1 chain with N20R, R21S, T23N, A25T, Q50R, S51L, G52D, H53G, T55R, R56T
The procedure, abridged: as §1

Series [9] deals with ZFP SBS#710 (synthetic). The procedure, abridged:
as §1

Series [10] addresses T6, ZFP SBS#708 (synthetic).
T6 chain: T1 chain with N20Q, R21S, T23N, Q50R, S51Q, G52D, H53T, T55V, R56G
Put shortly: as §1

Series [11] deals with T7, ZFP SBS#711 (synthetic).
T7 chain: T1 chain with N20Q, R21S, A22G, T23N, Q50R, S51Q, G52D, H53T, T55V, R56G
Put shortly: as §1

The target in series [12] is T8, ZFP SBS#602 (synthetic).
T8 chain: T1 chain with N20R, R21S, T23N, A25T, Q50R, S51Q, G52D, H53T, T55V, R56G
Put shortly:
as §1

The target in series [13] is ZFP SBS#699 (synthetic). The procedure, abridged: as §1
ZFP SBS#699 (synthetic), sequence (chain, as listed by the source): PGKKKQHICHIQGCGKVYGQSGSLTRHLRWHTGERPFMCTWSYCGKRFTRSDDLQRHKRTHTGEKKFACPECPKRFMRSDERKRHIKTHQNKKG
Series [14] deals with ZFP SBS#700 (synthetic). The procedure, abridged: as §1
ZFP SBS#700 (synthetic), sequence (chain, as listed by the source): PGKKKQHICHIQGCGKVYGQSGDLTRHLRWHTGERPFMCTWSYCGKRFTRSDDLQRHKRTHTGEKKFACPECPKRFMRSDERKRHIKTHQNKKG
Series [15] addresses T9, ZFP SBS#666 (synthetic).
T9 chain: T2 chain with E23D, E53N, S55T, Q78R, H80D, G81T, T83K, S84K
The procedure, abridged:
as §1

The target in series [16] is T10, ZFP SBS#665 (synthetic).
T10 chain: T2 chain with E23D, L24V, E53N, S55T, Q78R, H80D, G81D, T83R, S84R
Put shortly: as §1

Series [17] deals with T11, ZFP SBS#705 (synthetic, UniProt P08047).
T11 chain: T2 chain with E23H, T25A, E53S, S55A, Q78R, H80D, G81H, T83S, S84R
Put shortly:
as §1

For series [18], the target named is T12, ZFP SBS#706 (synthetic, UniProt P08047).
T12 chain: T2 chain with E23H, T25A, E53S, S55L, Q78R, H80D, G81H, T83S, S84R
The procedure, abridged:
as §1

For series [19], the target named is T13, ZFP SBS#695 (synthetic).
T13 chain: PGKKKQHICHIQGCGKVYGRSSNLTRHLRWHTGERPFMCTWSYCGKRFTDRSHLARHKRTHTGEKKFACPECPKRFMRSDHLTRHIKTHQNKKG
The procedure, abridged:
as §1

Series [20] concerns the target T14, ZFP SBS#689 (synthetic).
T14 chain: T2 chain with E23N, S55Q, Q78R, S79L, H80D, G81N, L82R, S84A
Put shortly:
as §1

The target of series [21] is T15, ZFP SBS#694 (synthetic).
T15 chain: T2 chain with E23N, S51A, E53T, S55R, Q78R, H80D, G81N, S84Q
The procedure, abridged:
as §1

Series [22] deals with T16, ZFP SBS#693 (synthetic).
T16 chain: T2 chain with E23N, S51A, E53T, S55R, Q78R, S79L, H80D, G81N, L82R, S84A
The procedure, abridged: as §1

In series [23] the target is T17, ZFP SBS#692 (synthetic, UniProt P08047).
T17 chain: T2 chain with E23N, S55Q, Q78R, H80D, G81N, S84Q
Put shortly: as §1

In series [24] the target is T18, ZFP SBS#714 (synthetic).
T18 chain: T13 chain with S22D, N23E, T25R, H53A, R84T
Put shortly:
as §1

Series [25] concerns the target T19, ZFP SBS#715 (synthetic).
T19 chain: T13 chain with S21A, S22D, N23T, T25R, H53A, R84T
The procedure, abridged: as §1

Series [26] addresses T20, ZFP SBS#716 (synthetic).
T20 chain: T1 chain with N20Q, R21S, A22G, T23S, A25T, T55Q, S79G, N81A, A83T, R84S
The procedure, abridged: as §1

Series [27] has as its target ZFP SBS#717 (synthetic). Put shortly: as §1
The target of series [28] is T21, ZFP SBS#718 (synthetic).
T21 chain: T1 chain with N20Q, R21S, A22G, T23S, A25T, T55Q, N81A, A83T
Put shortly:
as §1

Series [29] has as its target ZFP SBS#426 (synthetic). Put shortly: as §1
In series [30] the target is ZFP SBS#565 (synthetic). Put shortly:
as §1

Series [31] concerns the target ZFP SBS#425 (synthetic). The procedure, abridged: as §1
Series [32] has as its target ZFP SBS#424 (synthetic). The procedure, abridged: as §1
The target of series [33] is ZFP SBS#656 (synthetic). Put shortly:
as §1

Series [34] deals with ZFP SBS#654 (synthetic). Put shortly:
as §1

For series [35], the target named is T22, ZFP SBS#657 (synthetic).
T22 chain: T13 chain with R20Q, S22G, T25R, R26T, D50Q, R51S, H53T, A55R, H81N, R84S
Put shortly:
as §1

Series [36] addresses ZFP SBS#701 (synthetic). Put shortly: as §1
For series [37], the target named is T23, ZFP SBS#702 (synthetic).
T23 chain: T2 chain with E23N, T25A, S55Q, H80G, G81D, S84R
Put shortly:
as §1

ZFP SBS#603 (synthetic), sequence (chain, as listed by the source): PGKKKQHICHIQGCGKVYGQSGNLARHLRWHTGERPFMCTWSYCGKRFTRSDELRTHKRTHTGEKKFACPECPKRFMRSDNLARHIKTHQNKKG
ZFP SBS#600 (synthetic), sequence (chain, as listed by the source): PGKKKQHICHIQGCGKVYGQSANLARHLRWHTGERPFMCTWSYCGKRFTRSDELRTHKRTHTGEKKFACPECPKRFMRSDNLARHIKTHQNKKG
ZFP SBS#656 (synthetic), sequence (chain, as listed by the source): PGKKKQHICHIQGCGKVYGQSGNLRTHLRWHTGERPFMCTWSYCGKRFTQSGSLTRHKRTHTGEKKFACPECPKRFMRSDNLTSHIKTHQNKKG
ZFP SBS#701 (synthetic), sequence (chain, as listed by the source): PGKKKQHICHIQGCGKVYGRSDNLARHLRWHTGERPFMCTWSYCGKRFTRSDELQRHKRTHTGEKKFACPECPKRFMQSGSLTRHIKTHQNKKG
ZFP SBS#565 (synthetic), sequence (chain, as listed by the source): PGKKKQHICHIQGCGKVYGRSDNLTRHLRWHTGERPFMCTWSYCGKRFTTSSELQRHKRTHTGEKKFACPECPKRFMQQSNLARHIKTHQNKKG
ZFP SBS#426 (synthetic), sequence (chain, as listed by the source): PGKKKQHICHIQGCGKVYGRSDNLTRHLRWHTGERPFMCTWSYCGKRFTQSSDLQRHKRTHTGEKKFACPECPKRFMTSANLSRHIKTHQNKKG
ZFP SBS#710 (synthetic), sequence (chain, as listed by the source): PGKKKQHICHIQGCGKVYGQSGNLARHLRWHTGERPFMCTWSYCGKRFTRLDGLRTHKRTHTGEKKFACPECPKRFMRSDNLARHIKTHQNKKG
ZFP SBS#661 (synthetic), sequence (chain, as listed by the source): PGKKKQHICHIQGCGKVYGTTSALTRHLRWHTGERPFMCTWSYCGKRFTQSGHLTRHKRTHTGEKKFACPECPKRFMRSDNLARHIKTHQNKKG
ZFP SBS#424 (synthetic), sequence (chain, as listed by the source): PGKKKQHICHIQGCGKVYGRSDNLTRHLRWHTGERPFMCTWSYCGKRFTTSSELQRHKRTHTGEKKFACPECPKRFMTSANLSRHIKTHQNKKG

B1: GAGGGAGTTC (dsDNA)
DNA 1: GAGGGAGTTC
DNA 2: GAACTCCCTC
By Kd is commonly meant the constant that tells how readily two partners part at equilibrium. High values mean lower affinity, low ones higher affinity. For the molecule B1, the Kd in series [1] was 1.73 nM; in series [2], 8.25 nM.

B2: TGAGCGGCGG (dsDNA)
DNA 1: TGAGCGGCGG
DNA 2: CCGCCGCTCA
In the case of B2, the Kd in series [3] amounted to 300 nM; in [4], 200 nM.

B3: GAGTCGGAA (dsDNA)
DNA 1: GAGTCGGAA
DNA 2: TTCCGACTC
For B3, the Kd in series [5] is 167 nM; in [6] it was 400 nM; in [7] it was 207 nM; in series [8], 607 nM; in series [9], 400 nM; in series [10], 300 nM. Also, the Kd in series [11] was 400 nM; in series [12], 617 nM.

B4: GCGGCGGCAG (dsDNA)
DNA 1: GCGGCGGCAG
DNA 2: CTGCCGCCGC
B4: the Kd in [13] turned out to be 21.5 nM; in series [14] it was 45 nM.

B5: GCGGAGGCGC (dsDNA)
DNA 1: GCGGAGGCGC
DNA 2: GCGCCTCCGC
Turning to B5, the Kd in [15] was 0.5 nM; in series [16], 12.5 nM.

B6: GGGGTGGGGC (dsDNA)
DNA 1: GGGGTGGGGC
DNA 2: GCCCCACCCC
Regarding B6, the Kd in series [17] was 0.01 nM; in [18], 0.05 nM.

B7: GGGGGCGAGC (dsDNA)
DNA 1: GGGGGCGAGC
DNA 2: GCTCGCCCCC
In turn, B7 came in with a dissociation constant Kd in series [19] of 850 nM.

B8: AAGGCGGAGA (dsDNA)
DNA 1: AAGGCGGAGA
DNA 2: TCTCCGCCTT
For B8, the Kd in series [20] came out at 82.5 nM; in series [21], 28.5 nM; in series [22], 95 nM; in series [23], 51 nM.

B9: TGGGTCGCGG (dsDNA)
DNA 1: TGGGTCGCGG
DNA 2: CCGCGACCCA
Regarding B9, the Kd in [24] stood at 200 nM; in [25], 0.46 nM.

B10: TTGGGAGCAC (dsDNA)
DNA 1: TTGGGAGCAC
DNA 2: GTGCTCCCAA
Regarding B10, the Kd was 200 nM in series [26], 150 nM in series [27] and 108 nM in series [28].

B11: GATGCTGAG (dsDNA)
DNA 1: GATGCTGAG
DNA 2: CTCAGCATC
For the molecule B11, the dissociation constant (Kd) in series [29] was determined as 5.5 nM; in series [30], 100 nM; in [31], 25 nM; in [32] it was 100 nM.

B12: TAGGCATAAA (dsDNA)
DNA 1: TAGGCATAAA
DNA 2: TTTATGCCTA
As to B12, the Kd was 540 nM in series [33], 105 nM in [34] and 300 nM in series [35].

B13: GCAGCGGAGC (dsDNA)
DNA 1: GCAGCGGAGC
DNA 2: GCTCCGCTGC
Regarding B13, the dissociation constant Kd is 50.5 nM in [36] and 73.5 nM in [37].
